The values below come from patent publication US20210206856A1 (PANDION OPERATIONS, published 2021).

Positions count from the first letter of the chain named.

The chains are these.
T1: mouse MAdCAM expressed on cells (mouse, UniProt Q61826 22-405)
T1 construct: whole, on cells
T1 sequence (looked up): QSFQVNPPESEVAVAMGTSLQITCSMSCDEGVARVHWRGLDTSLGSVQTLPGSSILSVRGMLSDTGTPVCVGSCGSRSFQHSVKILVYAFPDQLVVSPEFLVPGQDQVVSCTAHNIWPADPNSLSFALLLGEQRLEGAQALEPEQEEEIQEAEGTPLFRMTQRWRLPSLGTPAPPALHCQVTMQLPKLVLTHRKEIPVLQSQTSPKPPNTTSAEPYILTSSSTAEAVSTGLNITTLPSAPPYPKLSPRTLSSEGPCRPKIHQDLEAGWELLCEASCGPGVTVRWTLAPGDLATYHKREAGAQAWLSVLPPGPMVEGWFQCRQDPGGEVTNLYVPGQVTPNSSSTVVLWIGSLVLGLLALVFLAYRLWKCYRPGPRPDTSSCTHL

T2: human MAdCAM expressed on cells (human, UniProt Q13477 19-382)
T2 construct: whole, on cells; also called MADCAM1
T2 sequence (looked up): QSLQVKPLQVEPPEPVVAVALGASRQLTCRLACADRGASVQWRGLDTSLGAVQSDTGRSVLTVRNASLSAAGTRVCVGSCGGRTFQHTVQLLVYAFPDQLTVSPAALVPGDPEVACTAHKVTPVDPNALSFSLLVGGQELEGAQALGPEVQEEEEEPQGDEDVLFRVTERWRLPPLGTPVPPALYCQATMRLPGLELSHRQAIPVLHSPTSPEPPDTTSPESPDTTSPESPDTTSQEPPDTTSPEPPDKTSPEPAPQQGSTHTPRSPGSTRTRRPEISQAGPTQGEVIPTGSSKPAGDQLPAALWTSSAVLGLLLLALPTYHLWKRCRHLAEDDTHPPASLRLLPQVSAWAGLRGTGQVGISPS

T3: recombinant mouse MAdCAM-1 (mouse, UniProt Q61826 22-365, limits assumed)
T3 construct: also called mMAdCAM-1; mouse MAdCAM-Fc
T3 sequence (looked up): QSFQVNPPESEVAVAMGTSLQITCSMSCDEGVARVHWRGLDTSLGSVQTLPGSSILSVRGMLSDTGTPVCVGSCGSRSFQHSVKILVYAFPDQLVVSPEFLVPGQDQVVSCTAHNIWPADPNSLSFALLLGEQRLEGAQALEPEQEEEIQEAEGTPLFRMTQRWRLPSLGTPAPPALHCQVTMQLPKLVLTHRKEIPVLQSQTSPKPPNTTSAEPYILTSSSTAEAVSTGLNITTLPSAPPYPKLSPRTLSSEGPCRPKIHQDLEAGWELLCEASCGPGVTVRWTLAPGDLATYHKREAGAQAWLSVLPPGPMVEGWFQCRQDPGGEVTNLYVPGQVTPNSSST

T4: mouse PD-1 on cells (mouse, UniProt Q02242 25-288)
T4 sequence (looked up): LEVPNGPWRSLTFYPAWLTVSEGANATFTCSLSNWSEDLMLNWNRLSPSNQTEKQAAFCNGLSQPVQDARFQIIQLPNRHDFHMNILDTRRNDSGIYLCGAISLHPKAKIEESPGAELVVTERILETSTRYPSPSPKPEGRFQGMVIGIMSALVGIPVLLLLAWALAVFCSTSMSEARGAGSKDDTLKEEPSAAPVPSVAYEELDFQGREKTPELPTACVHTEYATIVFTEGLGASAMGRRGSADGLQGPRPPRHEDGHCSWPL

B1: MAdCAM Antibody Table 2 Clone 28 (antibody, human IgG1, V domains shown)
VH: EVQLLESGGGLVQPGGSLRLSCAASGFTFSSYAMSWVRQAPGKGLEWVSYISSSSTYTNYADSVKGRFTISRDNSKNTLYLQMNSLRAEDTAVYYCARANSSSWYDWYFDLWGQGTLVTVSS
VL: not shown
B2: MAdCAM Antibody Table 2 Clone 29 (antibody, human IgG1, V domains shown)
VH: B1 VH with A33Q
VL: not shown
B3: MAdCAM Antibody Table 2 Clone 23 (antibody, human IgG1, V domains shown)
VH: EVQLLESGGGLVQPGGSLRLSCAASGFTFDDYAMHWVRQAPGKGLEWVSYIDTSSSHLYYADSVKGRFTISRDNSKNTLYLQMNSLRAEDTAVYYCARDEAAAGYYGMDVWGQGTTVTVSS
VL: DIQMTQSPSSLSASVGDRVTITCQAGQDISNYLNWYQQKPGKAPKLLIYDASNLETGVPSRFSGSGSGTDFTLTISSLQPEDFATYYCQQTYSTPITFGQGTKLEIK
B4: MAdCAM Antibody Table 2 Clone 6 (antibody, human IgG1, V domains shown)
VH: EVQLLESGGGLVQPGGSLRLSCAASGFTFNNYAFHWVRQAPGKGLEWVSRINSYGTSTTYADSVKGRFTISRDNSKNTLYLQMNSLRAEDTAVYYCAREGPVAGYWYFDLWGQGTLVTVSS
VL: DIQMTQSPSSLSASVGDRVTITCRASQIIGTNLAWYQQKPGKAPKLLIYGASSLQSGVPSRFSGSGSGTDFTLTISSLQPEDFATYYCQQSYRLPFTFGQGTKVEIK
B5: MAdCAM Antibody Table 2 Clone 24 (antibody, human IgG1, V domains shown)
VH: EVQLVESGGGLVKPGGSLRLSCAASGFTFSSYWMSWVRQAPGKGLEWVSRISSDGRITTYAAPVKGRFTISRDDSKNTLYLQMNSLKTEDTAVYYCARGTSYCTGGVCDIDYWGQGTLVTVSS
VL: B4 VL with I28S, T31R, A34N, G50S, S53N, R93S, L94I, F96L, Q100P, E105D
B6: MAdCAM Antibody Table 2 Clone 74 (antibody, human IgG1, V domains shown)
VH: QVQLVQSGAEVKKPGASVKVSCKASGYTFTGYYMHWVRQAPGQGLEWMGIINPSGGNTKYAQKFQGRVTMTRDTSTSTVYMELSSLRSEDTAVYYCTTADYYYYMDVWGKGTTVTVSS
VL: DIQMTQSPSSLSASVGDRVTITCRASQGISNYLAWYQQKPGKAPKLLIYAASSLQSGVPSRFSGSGSGTDFTLTISSLQPEDFATYYCQQYYSNADFGQGTKVEIK
B7: MAdCAM Antibody Table 2 Clone 20 (antibody, human IgG1, V domains shown)
VH: EVQLLESGGGLVQPGGSLRLSCAASGFTFSDSAMHWVRQAPGKGLEWVSAISGSGSTIYYADSVKGRFTISRDNSKNTLYLQMNSLRAEDTAVYYCVSDIAVAGHWYFDLWGRGTLVTVSS
VL: DIQMTQSPSSLSASVGDRVTITCRASQSISTFLNWYQQKPGKAPKLLIYAASRLEGGVPSRFSGSGSGTDFTLTISSLQPEDFATYYCQQANSFPLTFGPGTKVDIK
B8: MAdCAM Antibody Table 2 Clone 14 (antibody, human IgG1, V domains shown)
VH: QVQLVQSGAEVKKPGSSVKVSCKASGYTFTNYYMHWVRQAPGQGLEWMGGIIPIVDGVKYAQKFQGRVTITADESTSTAYMELSSLRSEDTAVYYCAKGQFTGNYYYGMDYWGQGTLVTVSS
VL: DIQMTQSPSSLSASVGDRVTITCQANQDISNYLNWYQQKPGKAPKLLIYRASKLEAGVPSRFSGSGSGTDFTLTISSLQPEDFATYYCQQSSEIPYSFGQGTKVEIK
B9: MAdCAM Antibody Table 2 Clone 22 (antibody, human IgG1, V domains shown)
VH: EVQLLESGGGLVQPGGSLRLSCAASGFTFDDYAMHWVRQAPGKGLEWVSGISWNSGSIGYADSVKGRFTISRDNSKNTLYLQMNSLRAEDTAVYYCAKDIVAAGHYYYGMDVWGQGTTVTVSS
VL: B3 VL with G26S, T91S, I96L, Q100G, L104V
B10: MAdCAM Antibody Table 2 Clone 65 (antibody, human IgG1, V domains shown)
VH: QVQLVQSGAEVKKPGASVKVSCKASGYTFTSYDINWVRQAPGQGLEWMGWMNPNSGNTGYAQKFQGRVTMTRDTSTSTVYMELSSLRSEDTAVYYCAKDSDYSNLLWDYWGQGTLVTVSS
VL: B4 VL with I28D, G30T, T31N, N32D, A34G, G50Q, Q55E, R93T, L94I, F96L
B11: MAdCAM Antibody Table 2 Clone 46 (antibody, human IgG1, V domains shown)
VH: EVQLLESGGGLVQPGGSLRLSCAASGFSFSSYTMNWVRQAPGKGLEWVSFITSSSRTIYYADSVKGRFTISRDNSKNTLYLQMNSLRAEDTAVYYCARDRRGDYGDSWYFDLWGRGTLVTVSS
VL: EIVMTQSPATLSVSPGERATLSCRASQSVRNYLAWYQQKPGQAPRLLIYGASTRATGIPARFSGSGSGTEFTLTISSLQSEDFAVYYCQQYGSSPLTFGGGTKVEIK
B12: MAdCAM Antibody Table 2 Clone 17 (antibody, human IgG1, V domains shown)
VH: QVQLVQSGAEVKKPGSSVKVSCKASGYTFTDYHIHWVRQAPGQGLEWMGGIVPRSGSTTYAQKFQGRVTITADESTSTAYMELSSLRSEDTAVYYCAKDESSGWYYFDYWGQGTLVTVSS
VL: DIVMTQSPLSLPVTPGEPASISCRSSQSLLHSNGYNYLDWYLQKPGQSPQLLIYSAYNRASGVPDRFSGSGSGTDFTLKISRVEAEDVGVYYCMQALQTPLTFGQGTKVEIK
B13: MAdCAM Antibody Table 1 Clone 11 (scFv)
scFv: QVQLVQSGAEVKKPGASVKVSCKASGYTFTTYYMHWVRQAPGQGLEWMGGFDPEDGETIYAQKFQGRVTMTRDTSTSTVYMELSSLRSEDTAVYYCARHAVAGAVGAGYYYYGMDVWGQGTMVTVSSGGGGSGGGGSGGGGSGGGGSDIQMTQSPSSLSASVGDRVTITCRASESISNWLAWYQQKPGKAPKLLIYAASTLQSGVPSRFSGSGSGTDFTLTISSLQPEDFATYYCQQSYSVPFTFGPGTKVDIK
B14: PD1AB18 (antibody, IgG1, V domains shown)
VH: QVQLVQSGAEVKKPGASVKVSCKASGYTFTDYAMHWVRQAPGQGLEWMGWLNPNSGNTGYAPKFQGRVTMTRDTSTSTVYMELSSLRSEDTAVYYCAAGLFIWGQGTMVTVSS
VL: DIQMTQSPSSLSASVGDRVTITCRASQSINRWLAWYQQKPGKAPKLLIYDASSLESGVPSRFSGSGSGTDFTLTISSLQPEDFATYYCQQSYSIPITFGQGTRLEIK

In one assay the target is T1, mouse MAdCAM expressed on cells. As to the kind of experiment: cell binding.
Regarding B1, the binding result is listed as “no binding”.
Take B2: the binding result was “no binding”.
In the case of B3, the binding result is “no binding”.
In the case of B4, the binding result is given as “no binding”.
Turning to B5, the binding result was “no binding”.
On the same count and under the same terms, the result for B6 reads “no binding”; that for B7, “no binding”; that for B8, “no binding”.
Consider B9, for which the binding result is listed as “no binding”.
On the same count and under the same terms, the result for B10 reads “no binding”.
In the case of B11, the binding result is on record as “no binding”.
As for B12, the binding result is on record as “no binding”.

Another assay has as its target T2, human MAdCAM expressed on cells. The assay can be described thus: cell binding.
Consider B2, for which the binding result was “binds”.
In the case of B3, the binding result is “binds”.
With B4, the binding result is on record as “binds”.
On the same count and under the same terms, under B5 stands “binds”; under B6, “binds”; under B7, “binds”.
Still for that read-out and setting: the result for B9 reads “binds”; that for B10, “binds”; that for B11, “binds”.
Consider B12, for which the binding result is “binds”.

A further assay has as its target T3, recombinant mouse MAdCAM-1. As to the kind of experiment: Octet. A general note: In BLI a coated tip is dipped into the sample, and binding shifts an interference pattern.
As to B1, the binding result was “no binding”.
The same measure, in the same setting: the result for B2 reads “no binding”.
Consider B3, for which the binding result is listed as “no binding”.
For the molecule B4, the binding result is “no binding”.
Regarding B5, the binding result is recorded as “no binding”.
Take B6: the binding result is on record as “no binding”.
As to B7, the binding result is given as “no binding”.
Still for that read-out and setting: under B8 stands “no binding”; under B9, “no binding”; under B10, “no binding”.
For the molecule B11, the binding result is given as “no binding”.
Regarding B12, the binding result is reported as “no binding”.

The next assay concerns the target T1, mouse MAdCAM expressed on cells. The assay can be described thus: cell binding. This is another data set of the same source.
Take B13: the binding result was “no binding”.

The target of the next assay is T2, human MAdCAM expressed on cells. The assay can be described thus: cell binding. This is another data set of the same source.
Turning to B13, the binding result is listed as “binds”.

In the next assay the target is T4, mouse PD-1 on cells. As to the kind of experiment: cell-based or functional assay.
Consider B14, for which the “Mouse agonist-CTG: IC50, IgG1” value was below 10 nM.
